Assay results reported in patent US20100286365.

Assays:
[1] = test system: GLP-1(7-37)-GG-(S)-2,6-diamino-1-(thiazolidin-2-cyano-3-yl)hexan-1-one amide
[2] = test system: GLP-1(7-37)-GG-(S)-2,6-diamino-1-(thiazolidin-3-yl)hexan-1-one amide
Chain of GLP-1(7-37)-GG-(S)-2,6-diamino-1-(thiazolidin-3-yl)hexan-1-one amide (chain, as listed by the source): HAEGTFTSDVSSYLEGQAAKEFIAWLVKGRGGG

Chain of GLP-1 (chain, as listed by the source): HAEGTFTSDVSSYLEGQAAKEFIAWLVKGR

Substance: Recombinant DPP-IV
- hydrolysis catalyzed by DPP-IV (mass spectrometry) [1]: the expected product ions were not observed, indicating that these two compounds are DPP-IV resistant under the test conditions
- hydrolysis catalyzed by DPP-IV (mass spectrometry) [2]: the expected product ions were not observed, indicating that these two compounds are DPP-IV resistant under the test conditions
- percentage of hydrolysis catalyzed by DPP-IV (mass spectrometry) (GLP-1): the DPP-IV catalyzed cleavage afforded the GLP-1 (9-36) product in 17% yield
